The values below come from PMC8779334, “Synthesis, Physicochemical and Biological Study of Gallium-68- and Lutetium-177-Labeled VEGF-A165/NRP-1 Complex Inhibitors Based on Peptide A7R and Branched Peptidomimetic” (Pharmaceutics, 2022).

One series has as its system VEGF-A165/NRP-1 complex. The conditions noted are these: read-out: IC50 (VEGF-A165 binding with NRP-1); cited from earlier work.
Series [1] is classed as physicochemical. The following applies: pH 7.4. On the procedure: The lipophilicity (L) of tested radiocompounds, defined as the decimal logarithm (logP) of the partition coefficient (P) of the compound between the two immiscible phases, was determined in the system PBS solution (aqueous phase, polar phase, pH 7.4) and n-octanol (organic, non-polar phase) according to the following formula: L=logP=logAo/Aw where Ao —organic phase radioactivity; Aw —aqueous phase radioactivity. Radioactivity of both phases, resulting from the concentration of the tested radiocompound in each of them, was determined by measuring the gamma radiation with a Wizard counter in three independent experiments. Before starting the research, both liquid phases were saturated with each other to avoid errors resulting from the mutual solubility of both liquids. The partition coefficient (P) result is shown as the mean ± SD. After the end of the experiment, we performed RP-HPLC analysis of the aqueous phase to confirm the tested radioconjugate remained intact during the experiment.

Series [2] is classed as in vitro ADME. The following applies: human, serum. The protocol: Stability studies of the ^68Ga-1, ^177Lu-1, ^68Ga-2, and ^177Lu-2 radioconjugates in human serum (HS) were performed according to the following procedure: into a vial containing 900 µL of HS we added 100 µL of the tested radioconjugate and incubated the mixture at 37 °C. After the specified incubation times (10 min–4.5 h for ^68Ga-radiocompounds and 10 min–4 days for ^177Lu-radiocompounds), we withdrew the aliquots, mixed with ethanol to precipitate the proteins, and centrifuged (14,000 rpm, 5–15 min) to separate the protein compounds from the supernatant. The gamma radioactivity of the obtained precipitate and supernatant was then measured using a Wizard detector. Using the formula below, the amount of radioconjugate remaining in the supernatant (and also bound by serum protein components) was calculated. ∑ liquid phase radioactivity/∑ liquid phase radioactivity+∑ percipitate radioactivity ×100% We also analyzed the supernatant at each time by RP-HPLC in System 3 with gamma detection for ^68Ga-1 and ^177Lu-1 and System 4 with gamma detection for ^68Ga-2 and ^177Lu-2 to check whether the studied radiocompound remained unchanged during the experiment.

The conditions of series [3]: cited from earlier work.

Read-outs that look alike come from different tables or passages of the source. Where a SMILES comes first, the peptide text is derived from it. Where no end group is shown, it is not given here. Side-chain parts run from the residue outwards. [ ]: non-standard residue; d: D form. The star is where a group is joined. DOTA = O=C(O)CN1CCN(CC(=O)O)CCN(CC(=O)*)CCN(CC(=O)O)CC1; hArg = N=C(N)NCCCC[C@H](N)C(=O)O; Dab = NCC[C@H](N)C(=O)O; Ahx = NCCCCCC(=O)O

In the case of ATWLPPR [A7R], in the series with VEGF-A165/NRP-1 complex, the IC50 was 5.9 µM. In the case of `N=C(N)NCCCC[C@H](N)C(=O)NCCCC[C@H](N)C(=O)N[C@@H](CCNC(=O)CCCCCNC(=O)CN1CCN(CC(=O)O)CCN(CC(=O)O)CCN(CC(=O)O)CC1)C(=O)N1CCC[C@H]1C(=O)N[C@@H](CCCNC(=N)N)C(=O)O` [^68Ga-2, [^68Ga]Lys(hArg)-Dab(Ahx-DOTA-Ga)-Pro-Arg, metal not drawn] (H-K(hArg)[Dab]([Ahx-DOTA])PR-OH), the “logP ± SD” value in series [1] is given as −4.57 ± 0.05. In the case of `N=C(N)NCCCC[C@H](N)C(=O)NCCCC[C@H](N)C(=O)N[C@@H](CCNC(=O)CCCCCNC(=O)CN1CCN(CC(=O)O)CCN(CC(=O)O)CCN(CC(=O)O)CC1)C(=O)N1CCC[C@H]1C(=O)N[C@@H](CCCNC(=N)N)C(=O)O` [^177Lu-2, [^177Lu]Lys(hArg)-Dab(Ahx-DOTA-Lu)-Pro-Arg, metal not drawn] (H-K(hArg)[Dab]([Ahx-DOTA])PR-OH), in series [1], the “logP ± SD” value is reported as −3.75 ± 0.08. In addition, the “radioconjugate remaining in HS sample (in words)” value in series [2] (24 h) is recorded as “only traces of radioconjugate were present”. For Lys(hArg)-Dab-Pro-Arg, in the series on VEGF-A165/NRP-1 complex, the IC50 was 0.2 µM. Moreover, in series [3], the “stability half-life in human serum” value is roughly 48 h. Moreover, the “half-life” value in series [3] (peptidomimetic concentration 0.9 µmol/mL, UV/VIS detection) was 41 h. `CC(C)C[C@H](NC(=O)[C@H](Cc1c[nH]c2ccccc12)NC(=O)[C@@H](NC(=O)[C@H](C)NC(=O)CCCCCNC(=O)CN1CCN(CC(=O)O)CCN(CC(=O)O)CCN(CC(=O)O)CC1)[C@@H](C)O)C(=O)N1CCC[C@H]1C(=O)N1CCC[C@H]1C(=O)N[C@@H](CCCNC(=N)N)C(=O)O` [^68Ga-1, [^68Ga]Ga-DOTA-Ahx-A7R, metal not drawn] ({DOTA-Ahx}-ATWLPPR-OH): the “logP ± SD” value in series [1] is on record as −3.92 ± 0.03. `CC(C)C[C@H](NC(=O)[C@H](Cc1c[nH]c2ccccc12)NC(=O)[C@@H](NC(=O)[C@H](C)NC(=O)CCCCCNC(=O)CN1CCN(CC(=O)O)CCN(CC(=O)O)CCN(CC(=O)O)CC1)[C@@H](C)O)C(=O)N1CCC[C@H]1C(=O)N1CCC[C@H]1C(=O)N[C@@H](CCCNC(=N)N)C(=O)O` [^177Lu-1, [^177Lu]Lu-DOTA-Ahx-A7R, metal not drawn] ({DOTA-Ahx}-ATWLPPR-OH): the “logP ± SD” value in series [1] is reported as −3.40 ± 0.14. The “radioconjugate remaining in HS sample (in words)” value in series [2] (96 h) is given as “still visible”.
